Laboratory results published in patent US8795990B2, “Recombinant enzyme with altered feedback sensitivity” (Metabolic Explorer, priority 2004, dated 2014).

Tested on: S-adenosylmethionine synthetase
Assay: S-adenosylmethionine synthetase (MAT) activity in vitro in crude extracts, FIA-MS/MS
Type: biochemical, E. coli
Settings: 10 mM methionine, 10 mM ATP, 37° C., 30 minutes

B1: MetK* S273F (protein, UniProt P0A817 2-384, looked up, variant S273F)
S-adenosylmethionine synthase: AKHLFTSESVSEGHPDKIADQISDAVLDAILEQDPKARVACETYVKTGMVLVGGEITTSAWVDIEEITRNTVREIGYVHSDMGFDANSCAVLSAIGKQSPDINQGVDRADPLEQGAGDQGLMFGYATNETDVLMPAPITYAHRLVQRQAEVRKNGTLPWLRPDAKSQVTFQYDDGKIVGIDAVVLSTQHSEEIDQKSLQEAVMEEIIKPILPAEWLTSATKFFINPTGRFVIGGPMGDCGLTGRKIIVDTYGGMARHGGGAFSGKDPSKVDRFAAYAARYVAKNIVAAGLADRCEIQVSYAIGVAEPTSIMVETFGTEKVPSEQLTLLVREFFDLRPYGLIQMLDLLHPIYKETAAYGHFGREHFPWEKTDKAQLLRDAAGLK
**Q.** How did the “MAT (S-adenosylmethionine synthetase activity)” value turn out when B1 was run?
**A.** The value was 2.2 mUI/mg prot.
